Measured values as given in patent US20100260773A1 (UCB, published 2010).
Where “and” joins values, the source holds several entries; their conditions need not be identical. Equal values may be shown once.

Key:
human IL-13 (wild type) [1] = molecular target: T1, human IL-13 (wild type) (human, UniProt P35225 35-146); experiment: Biacore 3000 SPR; Ab652 Fab captured by immobilised anti-human F(ab')2, hIL-13 titrated as analyte; average of 3 determinations
T1 construct: All wild-type human IL-13 preparations are written as this one molecule; also called hIL-13; recombinant human IL-13
T1 sequence (P35225 35-146 limits assumed): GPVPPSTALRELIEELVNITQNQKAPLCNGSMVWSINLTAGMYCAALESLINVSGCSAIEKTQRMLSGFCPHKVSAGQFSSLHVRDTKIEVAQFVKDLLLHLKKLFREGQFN
Procedure: (§1) BIA (Biamolecular Interaction Analysis) was performed using a BIAcore 3000 (BIAcore AB). Affinipure F(ab′)₂ Fragment, goat anti-human IgG, F(ab′)₂ fragment specific (Jackson ImmunoResearch) was immobilised on a CM5 Sensor Chip via amine coupling chemistry to a capture level of ≈4000 response units (RUs). A blank surface was prepared in a similar way, omitting the F(ab′)₂ fragment from the procedure. HBS-EP buffer (10 mM HEPES pH 7.4, 0.15 M NaCl, 3 mM EDTA, 0.005% Surfactant P20, BIAcore AB) was used as the running buffer with a flow rate of 10 μl/min. A 10 μl injection of Ab652 Fab at ˜0.2 μg/mL was used for capture by the immobilised anti-human IgG-F(ab′)₂ to allow sufficient IL-13 binding but also to minimise mass transport limited binding effects. Human IL13 was titrated over the captured Ab652 at various concentrations (10 nM to 0.31 nM) at a flow rate of 30 μL/min The surface was regenerated by a 10 μl it injection of 40 mM HCl, followed by a 5 μl it injection of 5 mM NaOH at a flowrate of 10 μL/min
(§2) Background subtraction binding curves were analysed using the BIAevaluation software (version 3.2) following standard procedures. Kinetic parameters were determined from the fitting algorithm.

human IL-13 (wild type) [2] = molecular target: T1, human IL-13 (wild type); experiment: Biacore 3000 SPR; purified Ab652 Fab captured by anti-human F(ab')2, hIL-13 as analyte; average of the table's runs
Procedure: as §1, §2

cynomolgus monkey IL-13 [3] = molecular target: T2, cynomolgus monkey IL-13 (cynomolgus monkey, UniProt Q0PW92 21-132); experiment: cell-based or functional assay
T2 sequence (Q0PW92 entry or part of it): as the sequence (P35225 35-146 limits assumed) above, with G1S, R10K, M42V, S67N, H83R, L100V counted along it

[4] = molecular target: variant human IL-13 (R130Q) (human) (UniProt P35225); experiment: cell-based or functional assay
variant human IL-13 (R130Q) (human), sequence (P35225 35-146, stated change not applied): as the sequence (P35225 35-146 limits assumed) above

Rat IL-13 = molecular target: T3, Rat IL-13 (rat, UniProt P42203 19-131, limits assumed); experiment: cell-based or functional assay
T3 sequence (looked up): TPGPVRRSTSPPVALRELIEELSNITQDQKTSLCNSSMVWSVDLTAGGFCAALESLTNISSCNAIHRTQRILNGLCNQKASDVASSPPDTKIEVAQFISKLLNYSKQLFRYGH

cynomolgus monkey IL-13 [5] = molecular target: T2, cynomolgus monkey IL-13; experiment: cell-based or functional assay; remark: listed apart in the source
human IL-13 (wild type) [6] = molecular target: T1, human IL-13 (wild type); experiment: cell-based or functional assay

B1: Ab652 (humanised anti-human IL-13 Fab, graft gL1gH2) (Fab, V domains shown)
VH: QVTLKESGPVLVKPTETLTLTCTVSGFSLTNYHVQWIRQPPGKALEWLGVMWSDGDTSFNSVLKSRLTISRDTSKSQVVLTMTNMDPVDTATYYCARDGTIAAMDYFDYWGQGTLVTVSS
VL: DIQMTQSPSSLSASVGDRVTITCLASEDISNYLAWYQQKPGKAPKLLIYHTSRLQDGVPSRFSGSGSGTDFTLTISSLQPEDFATYYCQQGYRFPLTFGGGTKVEIKR
notes: also called Ab652 Fab
B1 was tested, and the Kd (human IL-13 (wild type) [1]) was 0.0152 nM and 0.015 nM, the koff (human IL-13 (wild type) [1]) was 6.52e-05 s⁻¹ and the kon (human IL-13 (wild type) [1]) was 4.51e+06 M⁻¹ s⁻¹. For the same binder, the Kd (human IL-13 (wild type) [2]) was 0.0134 nM and 0.013 nM, the koff (human IL-13 (wild type) [2]) was 6.27e-05 s⁻¹ and the kon (human IL-13 (wild type) [2]) was 4.82e+06 M⁻¹ s⁻¹. For the same binder, the “neutralisation potency against cynomolgus IL-13 relative to human IL-13 from rat fibroblasts, HEK Blue assay” value (cynomolgus monkey IL-13 [3]) was ≤ 3 fold, the IC50 Ab652 Fab, HEK-Blue STAT-6 assay; IL-13 source natural human T cell, R130Q variant (250 pg/ml) [4] was 1.66 ng/mL and the “IC50 of Ab652, HEK Blue assay; recombinant mammalian cell derived rat IL-13 (transfected HEK293 supernatant), n = 1” value (Rat IL-13) was 953 ng/ml and 20000 pM. For the same binder, the “IC50 Ab652 Fab, HEK-Blue STAT-6 assay; cynomolgus IL-13 on human receptor (1/4,000 = 250 pg/ml)” value (cynomolgus monkey IL-13 [5]) was 1.61 ng/mL, the “IC50 Ab652 Fab, HEK-Blue STAT-6 assay; IL-13 source E. coli-derived, wild type (250 pg/ml)” value (human IL-13 (wild type) [6]) was 1.05 ng/mL and the “IC50 Ab652 Fab, HEK-Blue STAT-6 assay; IL-13 source mammalian (rat fibroblasts), wild type (250 pg/ml)” value (human IL-13 (wild type) [6]) was 0.57 ng/mL. For the same binder, the “IC50 Ab652 Fab, HEK-Blue STAT-6 assay; IL-13 source natural human T cell, wild type (250 pg/ml)” value (human IL-13 (wild type) [6]) was 2.12 ng/mL and the “IC50 Ab652 Fab, HEK-Blue STAT-6 assay; nebulised Fab (IL-13 source of this row not given)” value (human IL-13 (wild type) [6]) was 1.15 ng/mL.
